Assay results as given in article PMC3511050 (FEBS letters, 2012).
Blank lines part the entries; values can stand above or below the molecule they belong to.

How the values were obtained:
SufE (Escherichia coli) = SufE (Escherichia coli) (UniProt P76194); experiment: SPR; details: cited from earlier work
SufE (E. coli), P76194 = target: T1, SufE (E. coli), P76194; experiment: cross-linking; details: remark: other sources report otherwise
T1 chain: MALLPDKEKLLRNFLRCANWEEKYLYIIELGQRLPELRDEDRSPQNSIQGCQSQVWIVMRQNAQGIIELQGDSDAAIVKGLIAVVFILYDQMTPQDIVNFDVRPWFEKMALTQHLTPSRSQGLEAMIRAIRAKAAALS

[1] = target: T2, SufS cysteine desulfurase (E. coli, UniProt P77444 1-406); experiment: inhibition of enzyme activity
T2 sequence (looked up): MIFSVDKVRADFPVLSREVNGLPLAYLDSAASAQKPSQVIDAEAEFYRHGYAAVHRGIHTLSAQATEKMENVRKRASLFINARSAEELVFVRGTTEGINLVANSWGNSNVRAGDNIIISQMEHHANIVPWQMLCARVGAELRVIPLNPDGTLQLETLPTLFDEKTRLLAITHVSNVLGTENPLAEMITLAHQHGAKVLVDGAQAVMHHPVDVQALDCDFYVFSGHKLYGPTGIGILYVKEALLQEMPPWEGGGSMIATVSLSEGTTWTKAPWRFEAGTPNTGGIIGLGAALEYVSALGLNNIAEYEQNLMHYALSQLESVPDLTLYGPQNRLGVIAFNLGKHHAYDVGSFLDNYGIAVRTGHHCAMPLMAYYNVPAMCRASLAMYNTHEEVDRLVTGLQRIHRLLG

Molecule: SufS (from UniProt P77444)
- Kd (SufE (Escherichia coli)): 360 nM

- percent of total protein as disulfide-bonded homodimer (with or without H2O2) (SufE (E. coli), P76194): 18%
- stoichiometry N (SufE (E. coli), P76194): 2
B1: SufE, P76194 1-138 (natural protein)
chain: T1 chain

- Ki [1]: 190 nM
B2: SufE where C51 has been covalently blocked with iodoacetamide (natural protein, E. coli, UniProt P76194 1-138, looked up)
chain: T1 chain
modifications: C51 covalently blocked with iodoacetamide
